Results taken from article doi:10.1101/2025.02.25.640118 (bioRxiv, 2025).
Blank lines part the entries; values can stand above or below the molecule they belong to.

Legend:
[1] = molecular target: MsyB (Escherichia coli protein MsyB) (E. coli) (UniProt P25738); test: BLI
[2] = molecular target: MsyB (Escherichia coli protein MsyB) (E. coli) (UniProt P25738); test: SEC
[3] = molecular target: HUαα (HU alpha homodimer) (Escherichia coli, UniProt P0ACF0 1-90); test: EMSA
[4] = molecular target: β-clamp (β subunit of DNA polymerase) (E. coli, UniProt P0A988 1-366); test: BLI
[5] = molecular target: T1, HUαβ (E. coli, UniProt P0ACF0 1-90; P0ACF4 1-90); test: BLI
T1 sequence (looked up) 1: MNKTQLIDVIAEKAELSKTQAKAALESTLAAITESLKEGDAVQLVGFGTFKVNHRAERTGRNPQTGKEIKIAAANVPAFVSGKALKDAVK
T1 sequence (looked up) 2: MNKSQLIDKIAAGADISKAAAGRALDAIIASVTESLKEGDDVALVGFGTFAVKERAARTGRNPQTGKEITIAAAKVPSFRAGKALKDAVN

[6] = molecular target: T2, IHF (E. coli, UniProt P0A6X7 1-99; P0A6Y1 1-94)
T2 sequence (looked up) 1: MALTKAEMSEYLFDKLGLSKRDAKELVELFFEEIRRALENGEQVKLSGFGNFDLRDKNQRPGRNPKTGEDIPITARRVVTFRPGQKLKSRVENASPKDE
T2 sequence (looked up) 2: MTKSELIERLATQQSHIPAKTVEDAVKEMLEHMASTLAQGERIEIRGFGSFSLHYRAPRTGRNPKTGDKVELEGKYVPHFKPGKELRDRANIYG

Sequence of β-clamp (β subunit of DNA polymerase) (P0A988 whole entry): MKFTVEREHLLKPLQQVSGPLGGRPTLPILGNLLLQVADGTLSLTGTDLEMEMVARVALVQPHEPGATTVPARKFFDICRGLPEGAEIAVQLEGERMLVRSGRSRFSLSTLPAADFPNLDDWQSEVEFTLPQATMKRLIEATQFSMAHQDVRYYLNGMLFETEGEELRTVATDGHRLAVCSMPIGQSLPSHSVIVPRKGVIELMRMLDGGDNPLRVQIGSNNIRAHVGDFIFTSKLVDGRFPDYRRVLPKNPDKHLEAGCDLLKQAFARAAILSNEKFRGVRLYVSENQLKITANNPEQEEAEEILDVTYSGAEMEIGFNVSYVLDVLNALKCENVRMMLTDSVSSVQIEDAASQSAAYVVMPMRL

Molecule: HUαα (from UniProt P0ACF0 1-90) (natural protein)
Kd [1]: 4.88 nM
stoichiometry N [2]: 1

B1: dsDNA (DNA1/DNA2), 21 bp (dsDNA)
DNA 1: TGCTTATCAATTTGTTGCACC
DNA 2: GGTGCAACAAATTGATAAGCA
binding result [3]: binds

Second part, the molecule after the results:

Kd [1]: 700 nM
Molecule: β-clamp (β subunit of DNA polymerase) (from UniProt P0A988 1-366) (natural protein)

Kd [4]: 500 nM
B2: HUαα-MsyB complex (complex, E. coli)
chain 1: T1 sequence (looked up) 1
chain 2: MTMYATLEEAIDAAREEFLADNPGIDAEDANVQQFNAQKYVLQDGDIMWQVEFFADEGEEGECLPMLSGEAAQSVFDGDYDEIEIRQEWQEENTLHEWDEGEFQLEPPLDTEEGRAAADEWDER

Kd [5]: 3.22 nM
Kd [6]: 95 nM
B3: MsyB (Escherichia coli protein MsyB) (natural protein, E. coli, UniProt P25738 1-124, looked up)
chain: B2 chain 2
